According to patent US20140087995A1 (published 2014):
Numbered stars: 1 amine (or outer) side, 2 acyl side, 3 side chain; on linkers, the order of the positions; unused ones are H or OH. Bridge positions count the residues as written; N and C are the ends. Side chains are listed from the residue outwards. Ends that are not written are not given here. * marks the point of attachment. C20 diacid = O=C(O)CCCCCCCCCCCCCCCCCCC(=O)*; γGlu = O=C(O)[C@H](CCC(=O)[*:2])N[*:1]

Columns and labels:
[1] = target: T1, human amylin 3(a) receptor (human calcitonin receptor co-expressed with RAMP-3) (human, UniProt P30988 25-474; O60896 24-148, limits assumed); test: cell-based or functional assay
T1 sequence (looked up) 1: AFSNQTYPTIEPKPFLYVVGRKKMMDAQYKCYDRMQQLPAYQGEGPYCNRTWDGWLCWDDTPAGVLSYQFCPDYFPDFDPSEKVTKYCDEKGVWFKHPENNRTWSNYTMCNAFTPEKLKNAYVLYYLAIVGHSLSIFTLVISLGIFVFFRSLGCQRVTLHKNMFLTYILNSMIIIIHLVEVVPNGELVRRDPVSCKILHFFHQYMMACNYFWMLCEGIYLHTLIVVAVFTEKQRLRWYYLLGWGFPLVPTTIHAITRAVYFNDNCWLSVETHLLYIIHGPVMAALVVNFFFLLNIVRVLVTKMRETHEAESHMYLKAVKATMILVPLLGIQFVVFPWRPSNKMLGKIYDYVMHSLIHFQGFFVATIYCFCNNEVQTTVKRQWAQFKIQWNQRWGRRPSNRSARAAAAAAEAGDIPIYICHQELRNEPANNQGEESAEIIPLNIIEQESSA
T1 sequence (looked up) 2: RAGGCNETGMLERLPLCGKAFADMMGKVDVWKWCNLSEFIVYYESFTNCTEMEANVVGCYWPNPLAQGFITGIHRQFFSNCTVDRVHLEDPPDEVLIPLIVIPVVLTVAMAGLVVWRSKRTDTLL

[2] = target: T2, human calcitonin receptor (human, UniProt P30988 25-474); test: cell-based or functional assay
T2 sequence (looked up): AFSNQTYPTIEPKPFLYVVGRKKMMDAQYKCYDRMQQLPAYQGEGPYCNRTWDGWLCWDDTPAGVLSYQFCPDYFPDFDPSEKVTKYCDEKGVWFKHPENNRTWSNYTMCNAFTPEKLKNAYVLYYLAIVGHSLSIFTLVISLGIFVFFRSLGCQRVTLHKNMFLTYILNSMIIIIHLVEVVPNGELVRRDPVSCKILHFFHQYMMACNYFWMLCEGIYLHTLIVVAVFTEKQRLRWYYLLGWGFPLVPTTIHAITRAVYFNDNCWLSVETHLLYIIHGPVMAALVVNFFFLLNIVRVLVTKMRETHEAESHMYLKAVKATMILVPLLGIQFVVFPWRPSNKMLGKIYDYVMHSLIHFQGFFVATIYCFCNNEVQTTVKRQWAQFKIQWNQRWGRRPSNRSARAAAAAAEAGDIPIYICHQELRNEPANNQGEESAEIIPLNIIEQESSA

| Binder | hAmylin-R funct. EC50 [1] [pM] | Ratio hCT/hAmylin funct. [2] | hCTR funct. EC50 [2] [pM] |
| --- | --- | --- | --- |
| K([γGlu-C20 diacid])CNTATCATQRLAHFLRHSSPNFGAIPSSTPVGPNTY-NH2 (disulfide 2-7; N-terminus assumed; SMILES CC[C@H](C)[C@H](NC(=O)[C@H](C)NC(=O)CNC(=O)[C@H](Cc1ccccc1)NC(=O)[C@H](CC(N)=O)NC(=O)[C@@H]1CCCN1C(=O)[C@H](CO)NC(=O)[C@H](CO)NC(=O)[C@H](Cc1c[nH]cn1)NC(=O)[C@H](CCCNC(=N)N)NC(=O)[C@H](CC(C)C)NC(=O)[C@H](Cc1ccccc1)NC(=O)[C@H](Cc1c[nH]cn1)NC(=O)[C@H](C)NC(=O)[C@H](CC(C)C)NC(=O)[C@H](CCCNC(=N)N)NC(=O)[C@H](CCC(N)=O)NC(=O)[C@@H](NC(=O)[C@H](C)NC(=O)[C@@H]1CSSC[C@H](NC(=O)[C@@H](N)CCCCNC(=O)CC[C@H](NC(=O)CCCCCCCCCCCCCCCCCCC(=O)O)C(=O)O)C(=O)N[C@@H](CC(N)=O)C(=O)N[C@@H]([C@@H](C)O)C(=O)N[C@@H](C)C(=O)N[C@@H]([C@@H](C)O)C(=O)N1)[C@@H](C)O)C(=O)N1CCC[C@H]1C(=O)N[C@@H](CO)C(=O)N[C@@H](CO)C(=O)N[C@H](C(=O)N1CCC[C@H]1C(=O)N[C@H](C(=O)NCC(=O)N1CCC[C@H]1C(=O)N[C@@H](CC(N)=O)C(=O)N[C@H](C(=O)N[C@@H](Cc1ccc(O)cc1)C(N)=O)[C@@H](C)O)C(C)C)[C@@H](C)O) | 71 | 4.9 | 345 |
| K([γGlu-γGlu-C20 diacid])CNTATCATQRLAEFLRHSSPNFGAIPSSTNVGRNTY-NH2 (disulfide 2-7; N-terminus assumed; SMILES CC[C@H](C)[C@H](NC(=O)[C@H](C)NC(=O)CNC(=O)[C@H](Cc1ccccc1)NC(=O)[C@H](CC(N)=O)NC(=O)[C@@H]1CCCN1C(=O)[C@H](CO)NC(=O)[C@H](CO)NC(=O)[C@H](Cc1c[nH]cn1)NC(=O)[C@H](CCCNC(=N)N)NC(=O)[C@H](CC(C)C)NC(=O)[C@H](Cc1ccccc1)NC(=O)[C@H](CCC(=O)O)NC(=O)[C@H](C)NC(=O)[C@H](CC(C)C)NC(=O)[C@H](CCCNC(=N)N)NC(=O)[C@H](CCC(N)=O)NC(=O)[C@@H](NC(=O)[C@H](C)NC(=O)[C@@H]1CSSC[C@H](NC(=O)[C@@H](N)CCCCNC(=O)CC[C@H](NC(=O)CC[C@H](NC(=O)CCCCCCCCCCCCCCCCCCC(=O)O)C(=O)O)C(=O)O)C(=O)N[C@@H](CC(N)=O)C(=O)N[C@@H]([C@@H](C)O)C(=O)N[C@@H](C)C(=O)N[C@@H]([C@@H](C)O)C(=O)N1)[C@@H](C)O)C(=O)N1CCC[C@H]1C(=O)N[C@@H](CO)C(=O)N[C@@H](CO)C(=O)N[C@H](C(=O)N[C@@H](CC(N)=O)C(=O)N[C@H](C(=O)NCC(=O)N[C@@H](CCCNC(=N)N)C(=O)N[C@@H](CC(N)=O)C(=O)N[C@H](C(=O)N[C@@H](Cc1ccc(O)cc1)C(N)=O)[C@@H](C)O)C(C)C)[C@@H](C)O, also called compound 88) | 773 | 8.5 | 6560 |
| K([γGlu-γGlu-C20 diacid])CNTATCATQRLAEFLRHSSPNFGAIPSSTNVGSRTY-NH2 (disulfide 2-7; N-terminus assumed; SMILES CC[C@H](C)[C@H](NC(=O)[C@H](C)NC(=O)CNC(=O)[C@H](Cc1ccccc1)NC(=O)[C@H](CC(N)=O)NC(=O)[C@@H]1CCCN1C(=O)[C@H](CO)NC(=O)[C@H](CO)NC(=O)[C@H](Cc1c[nH]cn1)NC(=O)[C@H](CCCNC(=N)N)NC(=O)[C@H](CC(C)C)NC(=O)[C@H](Cc1ccccc1)NC(=O)[C@H](CCC(=O)O)NC(=O)[C@H](C)NC(=O)[C@H](CC(C)C)NC(=O)[C@H](CCCNC(=N)N)NC(=O)[C@H](CCC(N)=O)NC(=O)[C@@H](NC(=O)[C@H](C)NC(=O)[C@@H]1CSSC[C@H](NC(=O)[C@@H](N)CCCCNC(=O)CC[C@H](NC(=O)CC[C@H](NC(=O)CCCCCCCCCCCCCCCCCCC(=O)O)C(=O)O)C(=O)O)C(=O)N[C@@H](CC(N)=O)C(=O)N[C@@H]([C@@H](C)O)C(=O)N[C@@H](C)C(=O)N[C@@H]([C@@H](C)O)C(=O)N1)[C@@H](C)O)C(=O)N1CCC[C@H]1C(=O)N[C@@H](CO)C(=O)N[C@@H](CO)C(=O)N[C@H](C(=O)N[C@@H](CC(N)=O)C(=O)N[C@H](C(=O)NCC(=O)N[C@@H](CO)C(=O)N[C@@H](CCCNC(=N)N)C(=O)N[C@H](C(=O)N[C@@H](Cc1ccc(O)cc1)C(N)=O)[C@@H](C)O)C(C)C)[C@@H](C)O, also called compound 89) | 404 | 27.8 | 11200 |
| K([γGlu-γGlu-C20 diacid])CNTATCATQRLAEFLRHSSPNFGAIPSSTNVGPRTY-NH2 (disulfide 2-7; N-terminus assumed; SMILES CC[C@H](C)[C@H](NC(=O)[C@H](C)NC(=O)CNC(=O)[C@H](Cc1ccccc1)NC(=O)[C@H](CC(N)=O)NC(=O)[C@@H]1CCCN1C(=O)[C@H](CO)NC(=O)[C@H](CO)NC(=O)[C@H](Cc1c[nH]cn1)NC(=O)[C@H](CCCNC(=N)N)NC(=O)[C@H](CC(C)C)NC(=O)[C@H](Cc1ccccc1)NC(=O)[C@H](CCC(=O)O)NC(=O)[C@H](C)NC(=O)[C@H](CC(C)C)NC(=O)[C@H](CCCNC(=N)N)NC(=O)[C@H](CCC(N)=O)NC(=O)[C@@H](NC(=O)[C@H](C)NC(=O)[C@@H]1CSSC[C@H](NC(=O)[C@@H](N)CCCCNC(=O)CC[C@H](NC(=O)CC[C@H](NC(=O)CCCCCCCCCCCCCCCCCCC(=O)O)C(=O)O)C(=O)O)C(=O)N[C@@H](CC(N)=O)C(=O)N[C@@H]([C@@H](C)O)C(=O)N[C@@H](C)C(=O)N[C@@H]([C@@H](C)O)C(=O)N1)[C@@H](C)O)C(=O)N1CCC[C@H]1C(=O)N[C@@H](CO)C(=O)N[C@@H](CO)C(=O)N[C@H](C(=O)N[C@@H](CC(N)=O)C(=O)N[C@H](C(=O)NCC(=O)N1CCC[C@H]1C(=O)N[C@@H](CCCNC(=N)N)C(=O)N[C@H](C(=O)N[C@@H](Cc1ccc(O)cc1)C(N)=O)[C@@H](C)O)C(C)C)[C@@H](C)O, also called compound 110) | 278 | 29.3 | 8160 |
| K([γGlu-γGlu-C20 diacid])CNTATCATQRLANFLRHSSPNFGAIPSSTNVGHNTY-NH2 (disulfide 2-7; N-terminus assumed; SMILES CC[C@H](C)[C@H](NC(=O)[C@H](C)NC(=O)CNC(=O)[C@H](Cc1ccccc1)NC(=O)[C@H](CC(N)=O)NC(=O)[C@@H]1CCCN1C(=O)[C@H](CO)NC(=O)[C@H](CO)NC(=O)[C@H](Cc1c[nH]cn1)NC(=O)[C@H](CCCNC(=N)N)NC(=O)[C@H](CC(C)C)NC(=O)[C@H](Cc1ccccc1)NC(=O)[C@H](CC(N)=O)NC(=O)[C@H](C)NC(=O)[C@H](CC(C)C)NC(=O)[C@H](CCCNC(=N)N)NC(=O)[C@H](CCC(N)=O)NC(=O)[C@@H](NC(=O)[C@H](C)NC(=O)[C@@H]1CSSC[C@H](NC(=O)[C@@H](N)CCCCNC(=O)CC[C@H](NC(=O)CC[C@H](NC(=O)CCCCCCCCCCCCCCCCCCC(=O)O)C(=O)O)C(=O)O)C(=O)N[C@@H](CC(N)=O)C(=O)N[C@@H]([C@@H](C)O)C(=O)N[C@@H](C)C(=O)N[C@@H]([C@@H](C)O)C(=O)N1)[C@@H](C)O)C(=O)N1CCC[C@H]1C(=O)N[C@@H](CO)C(=O)N[C@@H](CO)C(=O)N[C@H](C(=O)N[C@@H](CC(N)=O)C(=O)N[C@H](C(=O)NCC(=O)N[C@@H](Cc1c[nH]cn1)C(=O)N[C@@H](CC(N)=O)C(=O)N[C@H](C(=O)N[C@@H](Cc1ccc(O)cc1)C(N)=O)[C@@H](C)O)C(C)C)[C@@H](C)O, also called compound 86) | 298 | 64.4 | 19200 |
| K([γGlu-γGlu-C20 diacid])CNTATCATQRLAEFLRHSSPNFGAIPSSTNVGHETY-NH2 (disulfide 2-7; N-terminus assumed; SMILES CC[C@H](C)[C@H](NC(=O)[C@H](C)NC(=O)CNC(=O)[C@H](Cc1ccccc1)NC(=O)[C@H](CC(N)=O)NC(=O)[C@@H]1CCCN1C(=O)[C@H](CO)NC(=O)[C@H](CO)NC(=O)[C@H](Cc1c[nH]cn1)NC(=O)[C@H](CCCNC(=N)N)NC(=O)[C@H](CC(C)C)NC(=O)[C@H](Cc1ccccc1)NC(=O)[C@H](CCC(=O)O)NC(=O)[C@H](C)NC(=O)[C@H](CC(C)C)NC(=O)[C@H](CCCNC(=N)N)NC(=O)[C@H](CCC(N)=O)NC(=O)[C@@H](NC(=O)[C@H](C)NC(=O)[C@@H]1CSSC[C@H](NC(=O)[C@@H](N)CCCCNC(=O)CC[C@H](NC(=O)CC[C@H](NC(=O)CCCCCCCCCCCCCCCCCCC(=O)O)C(=O)O)C(=O)O)C(=O)N[C@@H](CC(N)=O)C(=O)N[C@@H]([C@@H](C)O)C(=O)N[C@@H](C)C(=O)N[C@@H]([C@@H](C)O)C(=O)N1)[C@@H](C)O)C(=O)N1CCC[C@H]1C(=O)N[C@@H](CO)C(=O)N[C@@H](CO)C(=O)N[C@H](C(=O)N[C@@H](CC(N)=O)C(=O)N[C@H](C(=O)NCC(=O)N[C@@H](Cc1c[nH]cn1)C(=O)N[C@@H](CCC(=O)O)C(=O)N[C@H](C(=O)N[C@@H](Cc1ccc(O)cc1)C(N)=O)[C@@H](C)O)C(C)C)[C@@H](C)O) | 445 | 15.8 | 7050 |
